This is an account of results in patent publication US7514594B2, “Transgenic animal model of bone mass modulation” (Wyeth, priority 2003, dated 2009).

Experiment [1] concerns ovariectomized het and ntg mice. The experiment can be described thus: ovx-induced osteopenia in het and ntg mice treated with 17β-estradiol. The experiment is classed as in vivo, mouse. The following applies: both het and ntg; ovariectomized at 9 weeks; 10 μg/kg/day 17β-estradiol for 35 days. Here is the method:
To determine whether the mutation had any effect on ovx-induced osteopenia, het and ntg mice were ovariectomized at 9 weeks of age and treated for 35 days with vehicle or 10 μg/kg/day 17β-estradiol (E2). The percent change in total, trabecular and cortical density in het and ntg ovx mice from those values in their respective sham operated controls were determined. […] Ovariectomy induced a 14.3% decrease in total BMD (696±6 to 597±7 mg/cm^3) and a 26.3% decrease in trabecular BMD (445±9 to 328±7 mg/cm^3) in the het group and a 14.9% decrease in total BMD (470±10 to 400±7 mg/cm^3) and 37.6% decrease in trabecular BMD (132±4 to 82±2 mg/cm^3) in the ntg group.

A further experiment deals with HBM (Homo sapiens, UniProt O75197, G171V). Description: Dkk-1 binding to HBM. To be noted: observed by the inventors. The source says:
(§1) It may be that the reduced effectiveness of Dkk inhibition of LRP5 which is observed for HBM is not necessarily mediated by enhancing or preventing the binding of Dkk to LRP5/LRP6/HBM. More than one mechanism may be involved. […] Further, it has been observed that different members of the Dkk family differentially affect LRP5/LRP6/HBM activity. Rather, the more preferred approach is to develop a drug or therapy which results in the desired protective benefits by reproducing as nearly as possible the subtle effect of HBM. The ability to refine and test potential drugs and therapies by comparing their effects to an animal model of HBM is among the major features of the present invention.

A further experiment has as its system canonical Wnt signaling. The following applies: cited from earlier work.
For experiment [2], the system named is HBM-mediated Wnt signaling. Description: Dkk-1 repression of HBM-mediated Wnt signaling. The experiment is classed as cell-based. The following applies: compared with LRP5-mediated signaling. From the text: (§2) 1, 2002, and 60/361,293 filed Mar. 4, 2002. This observation is of particular interest because the HBM mutation in LRP5 is a gain of function or activation mutation. That is, Wnt signaling, via the canonical pathway, is enhanced with HBM versus LRP5. Not wishing to be bound by theory, it is believed that this interaction provides an explanation of the developmental signaling differences between HBM and the more common LRP5/LRP6.

For the next experiment, the target named is LRP5 (Homo sapiens, UniProt O75197). Description: Dkk-1 binding to LRP5. To be noted: observed by the inventors.
LRP5, sequence (O75197 32-1615): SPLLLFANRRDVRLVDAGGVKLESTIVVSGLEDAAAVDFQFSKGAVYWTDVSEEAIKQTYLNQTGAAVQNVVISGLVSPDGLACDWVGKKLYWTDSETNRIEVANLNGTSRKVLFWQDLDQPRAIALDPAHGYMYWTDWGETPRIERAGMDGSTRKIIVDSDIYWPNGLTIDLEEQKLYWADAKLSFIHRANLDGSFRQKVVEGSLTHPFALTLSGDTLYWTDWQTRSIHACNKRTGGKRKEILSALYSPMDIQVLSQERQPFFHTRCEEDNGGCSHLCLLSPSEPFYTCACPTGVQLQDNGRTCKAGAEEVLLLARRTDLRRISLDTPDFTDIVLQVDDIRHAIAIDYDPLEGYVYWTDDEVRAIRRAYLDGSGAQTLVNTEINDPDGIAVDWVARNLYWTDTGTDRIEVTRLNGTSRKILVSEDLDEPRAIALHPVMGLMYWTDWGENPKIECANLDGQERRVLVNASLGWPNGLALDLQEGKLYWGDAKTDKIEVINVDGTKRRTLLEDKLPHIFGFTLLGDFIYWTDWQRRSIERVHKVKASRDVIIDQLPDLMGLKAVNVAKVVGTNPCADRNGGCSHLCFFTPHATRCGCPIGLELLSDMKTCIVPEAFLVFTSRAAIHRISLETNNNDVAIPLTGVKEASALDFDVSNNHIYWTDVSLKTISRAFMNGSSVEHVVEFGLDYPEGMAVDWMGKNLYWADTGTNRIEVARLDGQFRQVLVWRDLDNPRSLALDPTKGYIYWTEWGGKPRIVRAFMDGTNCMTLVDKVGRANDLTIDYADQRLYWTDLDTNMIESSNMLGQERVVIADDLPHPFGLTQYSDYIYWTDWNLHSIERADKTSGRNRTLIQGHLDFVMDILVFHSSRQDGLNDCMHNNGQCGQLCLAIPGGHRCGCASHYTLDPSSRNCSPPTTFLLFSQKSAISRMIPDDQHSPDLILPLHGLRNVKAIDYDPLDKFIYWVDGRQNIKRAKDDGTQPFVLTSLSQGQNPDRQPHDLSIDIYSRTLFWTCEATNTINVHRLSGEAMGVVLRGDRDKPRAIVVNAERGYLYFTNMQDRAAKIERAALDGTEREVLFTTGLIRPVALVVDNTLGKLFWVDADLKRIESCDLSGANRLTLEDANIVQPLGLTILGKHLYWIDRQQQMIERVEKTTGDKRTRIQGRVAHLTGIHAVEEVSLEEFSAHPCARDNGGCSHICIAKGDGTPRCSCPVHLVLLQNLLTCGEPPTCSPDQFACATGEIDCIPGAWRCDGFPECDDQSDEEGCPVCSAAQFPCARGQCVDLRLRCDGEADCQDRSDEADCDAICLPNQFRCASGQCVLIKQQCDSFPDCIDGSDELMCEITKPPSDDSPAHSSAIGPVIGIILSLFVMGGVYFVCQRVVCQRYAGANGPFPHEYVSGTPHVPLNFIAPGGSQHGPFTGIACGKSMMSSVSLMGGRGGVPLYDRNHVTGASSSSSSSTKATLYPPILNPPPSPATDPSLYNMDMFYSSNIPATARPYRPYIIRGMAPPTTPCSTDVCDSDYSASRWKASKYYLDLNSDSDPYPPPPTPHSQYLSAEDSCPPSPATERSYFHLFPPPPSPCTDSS
Text: 1, 2002, and 60/361,293 filed Mar. 4, 2002. The two-hybrid screen is a common procedure in the art, which is described, for example, by Gietz et al., Mol. Cell. Biochem. 172:67-79 (1997); Young, Biol. Reprod. 58:302-11 (1998); Brent and Finley, Ann. Rev. Genet. 31:663-704 (1997); and Lu and Hannon, eds., Yeast Hybrid Technologies, Eaton Publishing, Natick Mass., (2000).
as §1

Experiment [3] deals with T1, LRP6 (Homo sapiens, UniProt O75581). The experiment can be described thus: Dkk-1 binding to LRP6. To be noted: observed by the inventors.
T1 sequence (O75581 20-1613, species assumed): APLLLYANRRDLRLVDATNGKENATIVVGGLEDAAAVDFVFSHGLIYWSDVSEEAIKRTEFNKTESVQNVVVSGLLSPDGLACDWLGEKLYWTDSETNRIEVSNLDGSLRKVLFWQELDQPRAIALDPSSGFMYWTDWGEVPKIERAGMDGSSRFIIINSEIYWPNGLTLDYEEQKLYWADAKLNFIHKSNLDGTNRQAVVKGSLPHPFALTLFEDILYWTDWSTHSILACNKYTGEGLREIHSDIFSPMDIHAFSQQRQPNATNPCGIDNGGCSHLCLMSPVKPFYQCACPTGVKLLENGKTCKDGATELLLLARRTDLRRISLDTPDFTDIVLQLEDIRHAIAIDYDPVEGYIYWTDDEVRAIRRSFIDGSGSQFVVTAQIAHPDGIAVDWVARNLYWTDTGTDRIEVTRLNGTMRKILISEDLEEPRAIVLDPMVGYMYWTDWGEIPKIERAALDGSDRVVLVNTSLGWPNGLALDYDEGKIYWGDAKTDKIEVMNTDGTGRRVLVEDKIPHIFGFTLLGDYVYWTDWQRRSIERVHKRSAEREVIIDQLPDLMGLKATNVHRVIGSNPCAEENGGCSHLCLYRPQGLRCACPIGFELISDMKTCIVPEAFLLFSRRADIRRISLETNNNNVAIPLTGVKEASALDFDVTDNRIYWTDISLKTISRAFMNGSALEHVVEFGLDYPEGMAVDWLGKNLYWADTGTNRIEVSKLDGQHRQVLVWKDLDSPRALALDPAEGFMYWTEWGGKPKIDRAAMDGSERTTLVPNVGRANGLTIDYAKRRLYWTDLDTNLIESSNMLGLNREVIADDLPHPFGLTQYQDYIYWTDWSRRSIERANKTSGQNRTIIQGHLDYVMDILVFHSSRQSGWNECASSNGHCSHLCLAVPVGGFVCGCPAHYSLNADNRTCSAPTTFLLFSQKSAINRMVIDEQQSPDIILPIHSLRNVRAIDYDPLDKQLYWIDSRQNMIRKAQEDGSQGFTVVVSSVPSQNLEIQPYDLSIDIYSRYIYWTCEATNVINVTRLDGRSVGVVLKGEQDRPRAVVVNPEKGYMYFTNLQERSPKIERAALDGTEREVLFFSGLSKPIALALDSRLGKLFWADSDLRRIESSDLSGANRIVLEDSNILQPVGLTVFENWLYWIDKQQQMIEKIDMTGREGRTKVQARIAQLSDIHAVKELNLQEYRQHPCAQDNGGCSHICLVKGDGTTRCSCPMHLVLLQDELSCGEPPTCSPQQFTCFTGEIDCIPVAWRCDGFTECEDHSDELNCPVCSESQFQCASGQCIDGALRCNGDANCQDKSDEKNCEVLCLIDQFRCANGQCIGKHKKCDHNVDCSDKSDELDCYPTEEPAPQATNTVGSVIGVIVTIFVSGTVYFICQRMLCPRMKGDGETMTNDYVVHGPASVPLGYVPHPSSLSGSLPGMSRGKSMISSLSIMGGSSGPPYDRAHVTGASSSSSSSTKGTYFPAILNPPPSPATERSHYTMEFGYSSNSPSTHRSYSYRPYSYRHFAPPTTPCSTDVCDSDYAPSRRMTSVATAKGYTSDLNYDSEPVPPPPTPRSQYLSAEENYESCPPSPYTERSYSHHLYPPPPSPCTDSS
Text: as §1

The subject of experiment [4] is LRP5-mediated Wnt signaling. Description: Dkk-1 repression of LRP5-mediated Wnt signaling. The experiment is classed as cell-based.
Text: as §2

Another experiment has as its system Wnt pathway. Description: Xenopus embryo assay of Wnt pathway stimulation. The format is in vivo. The following applies: for stimulation of the Wnt pathway: in combination with Wnt5a. From the text: Axin was also identified from the two hybrid experiments. This protein is involved in inhibition of the Wnt signaling pathway and interacts with the tumor suppressor APC. There is a link here with the focal adhesion signaling described above: one common step in the two pathways involves inhibition of glycogen synthase kinase 3, which in turn results in the activation of β-catenin/Lef-1 and AP-1 transcription factors. Axin/APC are involved in this as well as integrin linked kinase. The Wnt pathway has a role in determining cell fates during embryogenesis. If inappropriately activated, the Wnt pathway may also lead to cancer. The Wnt pathway also seems to have a role in cytoskeletal rearrangements. […] A model depicting LRP5 involvement in focal adhesion signaling is depicted in FIG. 15.

Experiment [5] concerns LRP5 G171V transgenic (het) and non-transgenic littermate (ntg) mice. The experiment can be described thus: hPTH treatment of LRP5 G171V transgenic and non-transgenic mice, femoral density by pQCT. The experiment is classed as in vivo, mouse. The following applies: for Percent Change in Bone Mass Density After 30 Days of hPTH Treatment, cortical, ntg / Percent Change in Bone Mass Density After 30 Days of hPTH Treatment, cortical, transgenic / Percent Change in Bone Mass Density After 30 Days of hPTH Treatment, total, ntg / Percent Change in Bone Mass Density After 30 Days of hPTH Treatment, total, transgenic / Percent Change in Bone Mass Density After 30 Days of hPTH Treatment, trabecular, ntg / Percent Change in Bone Mass Density After 30 Days of hPTH Treatment, trabecular, transgenic: left femur pQCT, vs vehicle controls. Here is the method:
In order to further examine increases in bone density that were detected in select transgenic lines through monitoring of the animals by non-invasive bone imaging, necropsies were performed on animals of these lines at 5 and 9 weeks of age for direct bone densitometric and histologic analysis. The left femur was isolated, cleaned and positioned in an XCT Research peripheral Quantitative Computed Tomograph (pQCT; Stradtec Medizintechnik, Pforzheim, Germany). The distal end of the femur was located and pQCT scanning was initiated 2.5 mm proximal from this point for total and trabecular measurements. The pQCT scan for cortical measurements was initiated 3.5 mm proximal from the first scan (i.e., 6 mm proximal from the distal end). […] The soft tissue was automatically removed using an iterative algorithm, and the density of the remaining bone (total density) in the first slice was determined. The outer 55% of the bone was then peeled away in a concentric spiral and the density of the remaining bone (trabecular density) of the first slice was reported in mg/cm^3. In the second slice, the boundary between cortical and trabecular bone was determined using an iterative algorithm, and the density of the cortical bone was determined.
[…] Total, trabecular and cortical densities were measured in excised left femur by pQCT. PTH response was normalized to the bone densities of the vehicle group and expressed as percent change from their respective vehicle controls.

Experiment [6] has as its target T1, LRP6. To be noted: Semenov et al.; cited from earlier work.
Experiment [7] addresses T1, LRP6. The following applies: Mao et al.; cited from earlier work.
Where [8] appears, read: extracellular domains, absence of Wnt5a.
[9] abbreviates: ntg animals, treatment with PTH.

HBM, sequence (O75197 32-1615 G171V): as the sequence (O75197 32-1615) above, with G140V counted along it

With `C[C@]12CC[C@@H]3c4ccc(O)cc4CC[C@H]3[C@@H]1CC[C@@H]2O` [E2, 17β-estradiol], the ovx-induced bone loss result in [1] is reported as “completely prevented”.

As for “Dkk-1: protein dickkopf-1, an antagonist of the Wnt pathway”, the “binding to HBM” value with HBM is reported as “binds”. The “canonical Wnt signaling” value with canonical Wnt signaling (Bafico et al., Dkk-1 added at extremely low concentrations (30 pM)) is recorded as “repression”. Also, the “repression of HBM-mediated Wnt signaling” value in [2] is on record as “less effective”. For the same molecule, the “binding to LRP5” value with LRP5 is listed as “binds”. In addition, the “binding to LRP6” value with LRP6 [3] was “binds”. Besides, the “repression of LRP5-mediated Wnt signaling” value in experiment [4] is recorded as “able to repress”.

For “HBM: protein identical to LRP5 except for an alteration of glycine 171 to valine”, the “stimulation of the Wnt pathway” value in the experiment on Wnt pathway is “much greater extent”.

On to “LRP5 ECD: extracellular domain (ECD) of LRP5”, for which the “stimulation of Wnt signaling” value in the experiment on Wnt pathway (setting [8]) is reported as “modest stimulation”.

Take “LRP5: wild-type LRP5 protein (SEQ ID NO: 3)”: the “stimulation of the Wnt pathway” value in the experiment with Wnt pathway is “modestly above the control”.

B1: human parathyroid hormone (peptide, UniProt P01270 32-115, looked up)
Parathyroid hormone: SVSEIQLMHNLGKHLNSMERVEWLRKKLQDVHNFVALGAPLAPRDAGSQRPRKKEDNVLVESHEKSLGEADKADVNVLTKAKSQ
modifications: Parathyroid hormone
notes: human parathyroid hormone (hPTH), anabolic agent
As for B1, in [5] (Female), the “Percent Change in Bone Mass Density After 30 Days of hPTH Treatment, cortical, ntg” value amounted to 4%; the “Percent Change in Bone Mass Density After 30 Days of hPTH Treatment, cortical, transgenic” value is reported as −1%; the “Percent Change in Bone Mass Density After 30 Days of hPTH Treatment, total, ntg” value came out at 18%; the “Percent Change in Bone Mass Density After 30 Days of hPTH Treatment, total, transgenic” value amounted to 30%. Besides, in [5] (Female), the “Percent Change in Bone Mass Density After 30 Days of hPTH Treatment, trabecular, ntg” value was −3% and the “Percent Change in Bone Mass Density After 30 Days of hPTH Treatment, trabecular, transgenic” value was 59%. Besides, in experiment [5] (Male, hPTH 100 mg/kg/day sc), the “Percent Change in Bone Mass Density After 30 Days of hPTH Treatment, cortical, ntg” value was determined as 3%; the “Percent Change in Bone Mass Density After 30 Days of hPTH Treatment, cortical, transgenic” value stood at 2%; the “Percent Change in Bone Mass Density After 30 Days of hPTH Treatment, total, ntg” value is 23%; the “Percent Change in Bone Mass Density After 30 Days of hPTH Treatment, total, transgenic” value is recorded as 37%. Further, in [5] (Male, hPTH 100 mg/kg/day sc), the “Percent Change in Bone Mass Density After 30 Days of hPTH Treatment, trabecular, ntg” value stood at 5% and the “Percent Change in Bone Mass Density After 30 Days of hPTH Treatment, trabecular, transgenic” value is 80%. Further, the “total femoral BMD” value in experiment [5] (both het and ntg, treatment with PTH) is “significant increase”. In addition, the trabecular bone compartment result in experiment [5] (het animals, treatment with PTH) is “increase”. For the same molecule, in experiment [5] (setting [9]), the cortical bone result is on record as “significant increase” and the “trabecular BMD” value was “no changes”.

B2: Dkk-1 mutant having cysteine 220 changed to alanine: Dkk-1 mutant having cysteine 220 changed to alanine (protein, UniProt O94907 32-266, looked up, variant C220A)
Dickkopf-related protein 1: TLNSVLNSNAIKNLPPPLGGAAGHPGSAVSAAPGILYPGGNKYQTIDNYQPYPCAEDEECGTDEYCASPTRGGDAGVQICLACRKRRKRCMRHAMCCPGNYCKNGICVSSDQNHFRGEIEETITESFGNDHSTLDGYSRRTTLSSKMYHTKGQEGSVCLRSSDCASGLCCARHFWSKICKPVLKEGQVATKHRRKGSHGLEIFQRCYCGEGLSCRIQKDHHQASNSSRLHTCQRH
Consider B2, for which the LRP6 binding result with LRP6 [6] was “abolished”. Besides, in the experiment on canonical Wnt signaling (Semenov et al.), the “repression of Wnt signaling” value is reported as “unable to repress”.

B3: Dkk-2: Dkk family protein found to directly bind LRP6 (protein, UniProt Q9UBU2 34-259, looked up)
Dickkopf-related protein 2: KLNSIKSSLGGETPGQAANRSAGMYQGLAFGGSKKGKNLGQAYPCSSDKECEVGRYCHSPHQGSSACMVCRRKKKRCHRDGMCCPSTRCNNGICIPVTESILTPHIPALDGTRHRDRNHGHYSNHDLGWQNLGRPHTKMSHIKGHEGDPCLRSSDCIEGFCCARHFWTKICKPVLHQGEVCTKQRKKGSHGLEIFQRCDCAKGLSCKVWKDATYSSKARLHVCQKI
A word on the Kd: it is the equilibrium constant for the complex coming apart. Consider B3, for which the Kd with LRP6 [7] was 730 pM.

B4: HBM ECD: extracellular domain (ECD) of HBM (protein, UniProt O75197 32-1384, looked up, variant G171V)
extracellular domain: SPLLLFANRRDVRLVDAGGVKLESTIVVSGLEDAAAVDFQFSKGAVYWTDVSEEAIKQTYLNQTGAAVQNVVISGLVSPDGLACDWVGKKLYWTDSETNRIEVANLNGTSRKVLFWQDLDQPRAIALDPAHGYMYWTDWVETPRIERAGMDGSTRKIIVDSDIYWPNGLTIDLEEQKLYWADAKLSFIHRANLDGSFRQKVVEGSLTHPFALTLSGDTLYWTDWQTRSIHACNKRTGGKRKEILSALYSPMDIQVLSQERQPFFHTRCEEDNGGCSHLCLLSPSEPFYTCACPTGVQLQDNGRTCKAGAEEVLLLARRTDLRRISLDTPDFTDIVLQVDDIRHAIAIDYDPLEGYVYWTDDEVRAIRRAYLDGSGAQTLVNTEINDPDGIAVDWVARNLYWTDTGTDRIEVTRLNGTSRKILVSEDLDEPRAIALHPVMGLMYWTDWGENPKIECANLDGQERRVLVNASLGWPNGLALDLQEGKLYWGDAKTDKIEVINVDGTKRRTLLEDKLPHIFGFTLLGDFIYWTDWQRRSIERVHKVKASRDVIIDQLPDLMGLKAVNVAKVVGTNPCADRNGGCSHLCFFTPHATRCGCPIGLELLSDMKTCIVPEAFLVFTSRAAIHRISLETNNNDVAIPLTGVKEASALDFDVSNNHIYWTDVSLKTISRAFMNGSSVEHVVEFGLDYPEGMAVDWMGKNLYWADTGTNRIEVARLDGQFRQVLVWRDLDNPRSLALDPTKGYIYWTEWGGKPRIVRAFMDGTNCMTLVDKVGRANDLTIDYADQRLYWTDLDTNMIESSNMLGQERVVIADDLPHPFGLTQYSDYIYWTDWNLHSIERADKTSGRNRTLIQGHLDFVMDILVFHSSRQDGLNDCMHNNGQCGQLCLAIPGGHRCGCASHYTLDPSSRNCSPPTTFLLFSQKSAISRMIPDDQHSPDLILPLHGLRNVKAIDYDPLDKFIYWVDGRQNIKRAKDDGTQPFVLTSLSQGQNPDRQPHDLSIDIYSRTLFWTCEATNTINVHRLSGEAMGVVLRGDRDKPRAIVVNAERGYLYFTNMQDRAAKIERAALDGTEREVLFTTGLIRPVALVVDNTLGKLFWVDADLKRIESCDLSGANRLTLEDANIVQPLGLTILGKHLYWIDRQQQMIERVEKTTGDKRTRIQGRVAHLTGIHAVEEVSLEEFSAHPCARDNGGCSHICIAKGDGTPRCSCPVHLVLLQNLLTCGEPPTCSPDQFACATGEIDCIPGAWRCDGFPECDDQSDEEGCPVCSAAQFPCARGQCVDLRLRCDGEADCQDRSDEADCDAICLPNQFRCASGQCVLIKQQCDSFPDCIDGSDELMCEITKPPSDDSPAHS
modifications: extracellular domain
B4: the “stimulation of Wnt signaling” value in the experiment on Wnt pathway (extracellular domain, presence of Wnt5a) was “slightly increased”; in the experiment on Wnt pathway (setting [8]), “modest stimulation”.
